This is an account of results in article PMC5397175, “Binding site density enables paralog-specific activity of SLM2 and Sam68 proteins in Neurexin2 AS4 splicing control”.

Where a chain is given by its changes, count along the chain named.

For data set [1], the target named is T1, SLM2 (T-STAR) STAR domain (UniProt O75525 1-183).
T1 sequence: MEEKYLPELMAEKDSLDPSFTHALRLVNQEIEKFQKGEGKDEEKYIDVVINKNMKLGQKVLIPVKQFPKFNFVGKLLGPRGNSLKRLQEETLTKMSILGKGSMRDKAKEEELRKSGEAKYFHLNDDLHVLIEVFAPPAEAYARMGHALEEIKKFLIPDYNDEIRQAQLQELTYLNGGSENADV
Nature of the data set: fluorescence polarization; FP buffer, salt, pH and temperature not given in the material; SD from three independent experiments. Particulars: protein: recombinant; chain copies: 2; label: 5' fluorescein. (In general: Polarisation of emitted light reports the rotation of a fluorescent probe.)

In data set [2] the target is Sam68 STAR domain (UniProt Q07666 97-283). The description is as above. Particulars: protein: recombinant; chain copies: 2; label: 5' fluorescein.
Chain of Sam68 STAR domain (Q07666 97-283): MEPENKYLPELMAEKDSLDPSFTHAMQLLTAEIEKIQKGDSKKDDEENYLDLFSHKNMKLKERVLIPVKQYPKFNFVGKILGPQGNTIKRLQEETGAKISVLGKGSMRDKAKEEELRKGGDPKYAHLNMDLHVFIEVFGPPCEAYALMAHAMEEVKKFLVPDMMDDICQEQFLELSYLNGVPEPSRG

B1: Nrxn2 WT (ssRNA)
RNA: CCCAAUUAAUUAAUUAAUUAACUAACUAACUAACUUUAAAAACACGAUCUUAAA
What is called Kd is the equilibrium constant for the complex coming apart. As for B1, the Kd in data set [1] turned out to be 5.9 ± 0.9 µM; in data set [2], 2.9 ± 0.3 µM.

B2: Nrxn2 mutant 7 (ssRNA)
RNA: B1 RNA with U27C, A28C, U31C, A32C, U35C, U36C
In the case of B2, the figures for the Kd in data set [1] and in data set [2] were 3.9 ± 0.4 µM and 3.4 ± 0.3 µM, respectively.
